From patent publication US11597752B2, “Peptides and combination of peptides and scaffolds thereof for use in immunotherapy against colorectal carcinoma (CRC) and other cancers” (priority 2015, dated 2023)

target: HLA-A*02:01 (Homo sapiens, UniProt P04439, D140Y/D185E/D98H/E176V/E277Q/G131W/G231S/I119V/I121R/I166T/I218V/L300P/L318F/N151K/N90K/P208A/P217A/Q86G/Q94H/R138H/R169H/T345S); assay: MHC binding assay (UV-ligand exchange, beta2m ELISA, peptide exchange yield); conditions: binding to HLA-A*02:01, β2m ELISA
Source text: Candidate peptides for T cell based therapies according to the present invention were further tested for their MHC binding capacity (affinity). The individual peptide-MHC complexes were produced by UV-ligand exchange, where a UV-sensitive peptide is cleaved upon UV-irradiation, and exchanged with the peptide of interest as analyzed. Only peptide candidates that can effectively bind and stabilize the peptide-receptive MHC molecules prevent dissociation of the MHC complexes. To determine the yield of the exchange reaction, an ELISA was performed based on the detection of the light chain (β2m) of stabilized MHC complexes. The assay was performed as generally described in Rodenko et al. (Rodenko et al., 2006).
96 well MAXISorp plates (NUNC) were coated over night with 2 ug/ml streptavidin in PBS at room temperature, washed 4× and blocked for 1 h at 37° C. in 2% BSA containing blocking buffer. Refolded HLA-A*02:01/MLA-001 monomers served as standards, covering the range of 15-500 ng/ml. Peptide-MHC monomers of the UV-exchange reaction were diluted 100 fold in blocking buffer. Samples were incubated for 1 h at 37° C., washed four times, incubated with 2 ug/ml HRP conjugated anti-β2m for 1 h at 37° C., washed again and detected with TMB solution that is stopped with […]. Absorption was measured at 450 nm. Candidate peptides that show a high exchange yield (preferably higher than 50%, most preferred higher than 75%) are generally preferred for a generation and production of antibodies or fragments thereof, and/or T cell receptors or fragments thereof, as they show sufficient avidity to the MHC molecules and prevent dissociation of the MHC complexes.

| Peptide exchange (MHC class I binding score, peptide exchange yield) | Substance |
| --- | --- |
| “+++” (≥50 = +++) | 71 (RLWTEIPTAI; listed as Homo sapiens) [compound 71] |
| “+++” (≥50 = +++) | 72 (YLLDYPNNLL; listed as Homo sapiens) [compound 72] |
| “+++” (≥50 = +++) | 73 (YLFDIAVSM; listed as Homo sapiens) [compound 73] |
| “+++” (≥50 = +++) | 74 (YLMGFLHAV; listed as Homo sapiens) [compound 74] |
| “++” (≥20% = ++) | 75 (EMIENIQSV; listed as Homo sapiens) [compound 75] |
| “+++” (≥50 = +++) | 76 (YLIGEKQHYL; listed as Homo sapiens) [compound 76] |
| “++” (≥20% = ++) | 77 (SLLKRDFGA; listed as Homo sapiens) [compound 77] |
| “++” (≥20% = ++) | 78 (ALDPELLLL; listed as Homo sapiens) [compound 78] |
| “++” (≥20% = ++) | 79 (SLAADQLLKL; listed as Homo sapiens) [compound 79] |
| “++” (≥20% = ++) | 80 (QVDEVVDIMRV; listed as Homo sapiens) [compound 80] |
| “+++” (≥50 = +++) | 81 (ALLSQQTHL; listed as Homo sapiens) [compound 81] |
| “++” (≥20% = ++) | 82 (QLYEEPDTKL; listed as Homo sapiens) [compound 82] |
| “+++” (≥50 = +++) | 83 (LTIEDGIFEV; listed as Homo sapiens) [compound 83] |
| “+++” (≥50 = +++) | 84 (SMVEDITGLRL; listed as Homo sapiens) [compound 84] |
| “++” (≥20% = ++) | 85 (ILHDINSDGVL; listed as Homo sapiens) [compound 85] |
| “++” (≥20% = ++) | 86 (KVFPGKISV; listed as Homo sapiens) [compound 86] |
| “+++” (≥50 = +++) | 87 (LLFDAPDLRL; listed as Homo sapiens) [compound 87] |
| “++++” (≥75% = ++++) | 88 (KLDIKVETV; listed as Homo sapiens) [compound 88] |
| “+++” (≥50 = +++) | 89 (SLIEYEFRV; listed as Homo sapiens) [compound 89] |
| “+++” (≥50 = +++) | 90 (GLLKPGLNVVL; listed as Homo sapiens) [compound 90] |
| “+++” (≥50 = +++) | 91 (TVDVATPSV; listed as Homo sapiens) [compound 91] |

| Peptide exchange (MHC class I binding score, peptide exchange yield) | Substance |
| --- | --- |
| “+++” (≥50 = +++) | 92 (WIDDTSAFV; listed as Homo sapiens) [compound 92] |
| “++++” (≥75% = ++++) | 93 (SLQELRLLL; listed as Homo sapiens) [compound 93] |
| “+++” (≥50 = +++) | 94 (KSMDIVLTV; listed as Homo sapiens) [compound 94] |
| “++++” (≥75% = ++++) | 95 (AILDAHIEV; listed as Homo sapiens) [compound 95] |
| “++” (≥20% = ++) | 96 (KLYSRLVYV; listed as Homo sapiens) [compound 96] |
| “++” (≥20% = ++) | 97 (ALWWGVVTV; listed as Homo sapiens) [compound 97] |
| “++” (≥20% = ++) | 98 (AMNGKSFSV; listed as Homo sapiens) [compound 98] |
| “+++” (≥50 = +++) | 99 (KLLEVDLDTV; listed as Homo sapiens) [compound 99] |
| “+++” (≥50 = +++) | 100 (SLDDFLATA; listed as Homo sapiens) [compound 100] |
| “+++” (≥50 = +++) | 101 (GLSEGHTFQV; listed as Homo sapiens) [compound 101] |
| “+++” (≥50 = +++) | 102 (KILVSLIEV; listed as Homo sapiens) [compound 102] |
| “++” (≥20% = ++) | 103 (FLFGYPKRL; listed as Homo sapiens) [compound 103] |
| “+++” (≥50 = +++) | 104 (ILLTIKDDTIYL; listed as Homo sapiens) [compound 104] |
| “+++” (≥50 = +++) | 105 (YALDLSTFL; listed as Homo sapiens) [compound 105] |
| “+++” (≥50 = +++) | 106 (SLISEKILL; listed as Homo sapiens) [compound 106] |
| “+++” (≥50 = +++) | 107 (ALLGGGPYML; listed as Homo sapiens) [compound 107] |
| “+++” (≥50 = +++) | 108 (SLAELVPGVGGI; listed as Homo sapiens) [compound 108] |
| “++” (≥20% = ++) | 109 (ALDGDQMEL; listed as Homo sapiens) [compound 109] |
| “+++” (≥50 = +++) | 110 (LLGELPRLLLL; listed as Homo sapiens) [compound 110] |
| “++” (≥20% = ++) | 112 (KLGQVLIYL; listed as Homo sapiens) [compound 112] |
| “++” (≥20% = ++) | 113 (ILYDLQQNL; listed as Homo sapiens) [compound 113] |

| Peptide exchange (MHC class I binding score, peptide exchange yield) | Substance |
| --- | --- |
| “+” (≥10% = +) | 114 (TAVGHALVL; listed as Homo sapiens) [compound 114] |
| “+++” (≥50 = +++) | 115 (SLFDVSHML; listed as Homo sapiens) [compound 115] |
| “++” (≥20% = ++) | 116 (LVYQFVHPI; listed as Homo sapiens) [compound 116] |
| “++” (≥20% = ++) | 117 (TLQPVDNSTISL; listed as Homo sapiens) [compound 117] |
| “+++” (≥50 = +++) | 118 (LLADLKTMV; listed as Homo sapiens) [compound 118] |
| “++” (≥20% = ++) | 119 (ILYQTVTGL; listed as Homo sapiens) [compound 119] |
| “++” (≥20% = ++) | 120 (VLYEGVDEV; listed as Homo sapiens) [compound 120] |
| “+++” (≥50 = +++) | 121 (SLAPNIISQL; listed as Homo sapiens) [compound 121] |
| “+++” (≥50 = +++) | 122 (SLMGMVLKL; listed as Homo sapiens) [compound 122] |
| “++++” (≥75% = ++++) | 125 (KLGDFGLLVEL; listed as Homo sapiens) [compound 125] |
| “+++” (≥50 = +++) | 126 (TLAKYLMEL; listed as Homo sapiens) [compound 126] |
| “++” (≥20% = ++) | 128 (MLDDRAYLV; listed as Homo sapiens) [compound 128] |
| “+++” (≥50 = +++) | 129 (VLIDVLKEL; listed as Homo sapiens) [compound 129] |
| “++” (≥20% = ++) | 130 (GLGGSQLIDTHL; listed as Homo sapiens) [compound 130] |
| “++” (≥20% = ++) | 131 (KLLDVVHPA; listed as Homo sapiens) [compound 131] |
| “++++” (≥75% = ++++) | 134 (GVAGGSILKGV; listed as Homo sapiens) [compound 134] |
| “++” (≥20% = ++) | 135 (KLQEEIPVL; listed as Homo sapiens) [compound 135] |
| “+++” (≥50 = +++) | 136 (KLFDIFSQQV; listed as Homo sapiens) [compound 136] |
| “+++” (≥50 = +++) | 137 (QLTEIKPLL; listed as Homo sapiens) [compound 137] |
